Reference: the nanobody polyreactivity screen of Harvey et al. (2022)

assay: yeast display, Sf9 membrane polyspecificity reagent, FACS + sequencing; frameworks hold sequencing errors
In short: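 Polyreactivity labels are assigned by the sorting gate from which each nanobody was recovered. The gates were low and high (top ~1%), set on anti-HA fluorescence for expression and streptavidin fluorescence for reagent binding. Before sorting, galactose-induced (36–48 hours) yeast display cells were stained for 1 hour at 4 °C with 10% biotinylated, detergent-solubilized Sf9 membrane reagent.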

Question: For “QVQLVESGGGLVQAGGSLRLSCAASGFTFYSYAMGWYRQAPGKERELVAGISRSGGSTYYADSVKGRFTISRDNAKNTVYLQMNSLKPEDTAVYYCNVRLRKKIQNSKYDYWGQGTQVTVSS”, which “polyreactivity (PSR sort gate)” value is on record?
Answer: high polyreactivity

Question: For “QVQLVESGGGLVQAGGSLRLSCAASGGIFSYNDMGWYRQAPGKERELVAAISSGGGGITYYADSVKGRFTISRDNAKNTVYLQMNSLKPEDTAVYYCNVVPDFRAAYSSQYYYWGQGTQVTVSS”, which “polyreactivity (PSR sort gate)” value is on record?
Answer: low polyreactivity

Question: For “QVQLVESGGGLVQAGGSLRLSCAASGRTFRKYTMGWYRQAPGKERELVAASASRGGSTYYADSVKGRFTISRDNAKNTVYLQMNSLKPEDTAVYYCATDYITPSSDGDYWGQGTQVTVSS”, which “polyreactivity (PSR sort gate)” value is on record?
Answer: high polyreactivity

Question: Which “polyreactivity (PSR sort gate)” value does the source give for “QVQLVESGGGLVQAGGSLRLSCAASGSTLANYAMGWYRQAPGKERELVAAINSGGSTYYADSVKGRFTISRDNAKNTVYLQMNSLKPEDTAVYYCAAETPNYYGWWEPVWHYYWGQGTQVTVSS” here?
Answer: high polyreactivity

Question: With “HVQLVESGGGLVQAGGSLRLSCAASGRILYGNAMGWYRKAPGKDRELVAAISWRADSTYYADSVKGRFTISRDNAKNTVYLQMNSLKPEDTAVYYCAADGNYRRHYWGQGTQVTVSS” as the sequence, how does the “polyreactivity (PSR sort gate)” value read?
Answer: high polyreactivity

Question: For “QVQLVESGGGVVQAGGSLRLSCAASGSIYSQYAMGWYRQAPGTERELVASISRRGGRTYYADSVKGRFTISRDNAKNTVYLQMNSLKPEETAVYYCAALDTAGPYNTLDIYDHWGQGTQVTVSS”, which “polyreactivity (PSR sort gate)” value is on record?
Answer: high polyreactivity

Question: Which “polyreactivity (PSR sort gate)” value does the source give for “QVQLVESGGGLVQAGGSLRLSCAASGRTLGWYAMGWYRQAPGKERELVATISITGGSTYYADSVKGRFTISRDNAKNTVYLQMNSLKPEDTAVYYCAARHGSRRRYYYWGQGTQVTVSS” here?
Answer: high polyreactivity

Question: Which “polyreactivity (PSR sort gate)” value does the source give for “QDQLVESGGGIVQAGGSLRLSCAASGFIFYTYAMGCYRQAPGKESELVAAISSRGTRTYYADSVKGRFTISRDNAKNTVFLQMNSLKPEDTAVYYCAAVSYSYEYPSFDMGYWGQGTQVTVSS” here?
Answer: high polyreactivity

Question: For “QVQLVESGGGLVQAGGSLRLSCAASGSTFAGYVMGWYRQAPGKERELVAAISRSGGSTYYADSVKGRFTISRDNAKNTVYLQMNSLKPEDTAVYYCAARNSPGFPGDYWGHGTQVTVSS”, which “polyreactivity (PSR sort gate)” value is on record?
Answer: high polyreactivity

Question: Which “polyreactivity (PSR sort gate)” value does the source give for “QVQLVESGGGLVQAGGSLRLSCAASGRIFVKYAMGWYRQAPGKEREMVAAISASGGGTYYADSVKGRFTISRDNAKNTVYLQMNSLNPVDTAVYYFNADFRYPGQVPSYVTYDYWGQGTQVNVSS” here?
Answer: low polyreactivity

Question: Which “polyreactivity (PSR sort gate)” value does the source give for “QVQLVESGGGLVQAGGSLRLSCAASGSTLATYTMGWYRQAPGKERELVAAISFGGSTYYADSVKGRFTISRDNAKNTVYLQMNSLKPEDTAVYYCAVYGDSYWGAYYYSDGYWGQGTQVTVSS” here?
Answer: low polyreactivity

Question: For “QVQLVESGGGLVQAGGSLRLSCAASGRIFYVYAMGWYRQAPGKERELVPAITSSGGSTYYADSVKGRFTISRDTAKNTVYLQMNSLKPEDTAVYYCAARERAGYSRIRYNYWGQGTQVTVSS”, which “polyreactivity (PSR sort gate)” value is on record?
Answer: high polyreactivity

Question: Which “polyreactivity (PSR sort gate)” value does the source give for “QVQLVESGGGLVQAGGSLRLSCAASGITFWAYAMGWYRQAPGKERELVAAITSGGSTNYADSVKGRFTISRDNAKNTVYLQMNSLKPEDTAVYYCAKNYRYYVFYDGFDYWGQGTQVTVSS” here?
Answer: low polyreactivity

Question: Which “polyreactivity (PSR sort gate)” value does the source give for “QVQLVESGGGLVQAGGSLRLSCAASGRIFYSYAMGWYRQAPGKERELVATISSAGSTYYADAVKGRFTISRDNAKNTVYLQMNSLKPEDTAVYYCAARRPRRYGYWGQGTQVTVSS” here?
Answer: high polyreactivity

Question: With “QVQLVESGGGLVQAGGSLRLSCAASGSTFDFNAMGWYRQAPGKERELVAAITGSDGNTYYADSVKGRFTISRDNAKNTVYLQMNSLKPEDTAVYYCAADFSWWSKYVVLYDYWGQGTQVTVSS” as the sequence, how does the “polyreactivity (PSR sort gate)” value read?
Answer: low polyreactivity

Question: Which “polyreactivity (PSR sort gate)” value does the source give for “RVQLQESGGGLVQAGGSLRLSCAASGTIFIRGDMGWYRQAPGKEREFVATIETGSNTYYADSEKGRFTISRDNAKNAVYLEMNCLKPGDTAVYYCVVDYQLSGRLRYWGQGTQVTLSS” here?
Answer: low polyreactivity

Question: With “QVQLVESGGGLVQAGGSLRLSCAASGFIFSYYAMGWYRQAPGKERELVAAMSSSGSRTYYADSVKGRFTISRDNAKNTVYLQMNSLKPEDTAVYYCAARGWFRGEFDYWGQGTQVTVSS” as the sequence, how does the “polyreactivity (PSR sort gate)” value read?
Answer: high polyreactivity

Question: Which “polyreactivity (PSR sort gate)” value does the source give for “QVQLVESGGGLVQAGGTLRLSCAASGRTFPSNAMGWYRQAPGKEREFVASITYSGGRTYYADSVKGRFTISRDNAKNTVYLQMNSLKPEDTAVFYCATARYRYHYYSWGQGTQVTVSS” here?
Answer: high polyreactivity

Question: Which “polyreactivity (PSR sort gate)” value does the source give for “QVQLVESGGGLVQAGGSLRLSCAASGSIFWRYSMGWYRQAPGKERELVAAINYSTTRTYYADSVKGRFTISRDNAKNTVYLQMNSLKPEDTAVYYCAADSRVDEGEYWGQGTQVTVSS” here?
Answer: high polyreactivity

Question: For “QVQIVESGGGLVQAGGSLRLSCAASGLIFVVYAMGWNRQATGIERELVADISSVGRTSYADSVKGSFTISRDNAKNNVYLQMNSLKPEDTAVYYCNAYPVFNQYYCWRYDYLGQGTQVTVSS”, which “polyreactivity (PSR sort gate)” value is on record?
Answer: low polyreactivity

Question: With “QVQLVESGGGLVQAGGSLRLSCAASGFTFTVYAMGWYRQAPGKERELVAAISGIGGSTYYADSVKGRFTISRDNAKNTVYLQMNSLKPEDTAVYYCNAVSGDSGDYWGQGTQVTVSS” as the sequence, how does the “polyreactivity (PSR sort gate)” value read?
Answer: low polyreactivity

Question: Which “polyreactivity (PSR sort gate)” value does the source give for “QVQLQESGGGLVQAGGSLRLSCAASGNIFSAGGMGWYRQAPVNERELVAGIGTGTSTNYADSVKGRFTISRDNAKNTVYLQMNSLKPEDTAVYYCAAAYYSGLSHWYWGQGTQVTVSS” here?
Answer: low polyreactivity

Question: Which “polyreactivity (PSR sort gate)” value does the source give for “QVQLVESGGGLVQAGGSLRLSCAASGRTFKYYAKGWYRQAPGKERELVAAINSGGITYYADTVKGRFTISRDNEKNTVYLQRNSLKAEDTAVYYCAKVWKIGVLRYPSYGYYYWGQGTQVTVSS” here?
Answer: high polyreactivity

Question: Which “polyreactivity (PSR sort gate)” value does the source give for “QVQLVESGGVLVQAGGSLRLSCAASGGIFQGNVMGWYRQAPGKERELVASIRRGGSTNYADSVKGPFTISRDNAKNTVYLQMNSLKPEDTAVYYCNAAFYKEYYYWGQGTQVTVSS” here?
Answer: low polyreactivity

Question: For “QVQLVESGGGLVQAGGSLRLSCAASGFTFGTYTMGWYRQAPGKERELVAAIRSSGGRTYYADSVKGRFTISRDNAKNTVYLQMNSLKPEDTAVYYCAAVLFGYPRTFGTWYDRYYYWGQGTQVTVSS”, which “polyreactivity (PSR sort gate)” value is on record?
Answer: high polyreactivity

Question: With “QVQIVESGGGLVQAGGSLRFSCAASGRIFRGYDMGWYRQAPGKEREFVAAISWSGGNTYYADSVKGRFTISRDNAKNTVYLLMNSLNPEDTAVYYCAARVFGSHFYYRTRPYDYWGQGTQVTVSS” as the sequence, how does the “polyreactivity (PSR sort gate)” value read?
Answer: high polyreactivity

Question: For “QVQLVESGGGLVQAGGSLRLSCAASGFTFAHNAMGWYRQAPGKERELVAAITRSGGSTYYADSVKGRFTISRDNAKNTVYLQMNSLKPEDTAVYYCNAGRRGSGYGYWGQGTQVTVSS”, which “polyreactivity (PSR sort gate)” value is on record?
Answer: high polyreactivity

Question: For “QVQLVESGGGLVQAGGSLRLSCAASGYTFWAYTMGWSRQAPGKERELVAAISFSGGSTYYADSVKGRFTISRDNAKNTVYLLMNSLKPEDTAVYYCAADYLIEMDYWGQGTQVTVSS”, which “polyreactivity (PSR sort gate)” value is on record?
Answer: low polyreactivity

Question: For “QVQLVESGGGLVQAGGSRRLSCAASGRTFIVYAMGWYRQAPGKERELVARISSGSRTSYADSVKGRFTISRDNAKNTVYLQMNSLKPEDTAVYYCAKSRVIKYEFDYWGQGTQVTVSS”, which “polyreactivity (PSR sort gate)” value is on record?
Answer: low polyreactivity

Question: For “QVQLVESGGGLVQAGGSLRLSCAASGRTFAYYAMGWYRQAPGKERELVAAITQSGGRTYYADSVKGRFTISRDNAKNTVYLQMNSLKPEDTAVDYCAARRISGKWEYDYWGQGTQVTVSS”, which “polyreactivity (PSR sort gate)” value is on record?
Answer: high polyreactivity

Question: For “QVQLVESGGGLFQAGGSLRLSCAASGITLYLYVMGWYRQAPGIEREFVAAIRWSGGSTYYADSVKGRFTISRDNAKYTVYLLMNSLKPEDTAVYYCAVTYVGHVYEYYYWGQGTQVTVSS”, which “polyreactivity (PSR sort gate)” value is on record?
Answer: low polyreactivity

Question: Which “polyreactivity (PSR sort gate)” value does the source give for “QVQLVESGGGLVQAGGSLRLSCAASGSTFQTYAMGWYRQAPGKERELVASIDYSGGSTYYADSVKGRFTISRDNAKNTVYLQMNSLKPEDTAVYYCAADLSSDSSYSGYDYWGQGTQVTVSS” here?
Answer: low polyreactivity

Question: Which “polyreactivity (PSR sort gate)” value does the source give for “QVQLVESGGGLVQAGGSLRLSCAASGRTLHYYAMGWYRQAPGKERELVAAISRTGSTDYADSVKGRFTISRDNAKNTVYLQMNSLKPEDTAVYYCAAYYRYRSGRYYYWGQGTQVTVSS” here?
Answer: high polyreactivity

Question: Which “polyreactivity (PSR sort gate)” value does the source give for “QVQLVETGGGLVQAGGSLRLSCAASGLTFIEYAMGWYRQAPGKERELVAAISSGGRTYYADSVKGRFTISRDNAKNTVYLQMNSLKPEDTAVYYCNARGYRRWYNYWGQGTQVTVSS” here?
Answer: high polyreactivity

Question: For “QVQLVESGGGLVQAGGSLRLSCAASGFTLEFSAMGWYRQAPGKERELVASISSGGRTNYADSVKGRFTISRDNAKNTVYLQMYSLKPVDTAVYYCAAEYRSWGRYRYRFNYWGQGTQVTVSS”, which “polyreactivity (PSR sort gate)” value is on record?
Answer: high polyreactivity

Question: With “QVQLVESGGGLVQAGGSLRLSCAASGSTFAVNVMGWYRQAPGKERELVATITYRDGRTYYADSVKGRFTISRDNAKNTVYLQMNSLKPEDTAVYYCAADDEYKQEAEMDSWGQGTQVTVSS” as the sequence, how does the “polyreactivity (PSR sort gate)” value read?
Answer: low polyreactivity

Question: Which “polyreactivity (PSR sort gate)” value does the source give for “QLQQHESGGGLVQAGDSPRLSCAESDNIFPDSVMCWYLQAPGKERELVATIGFGATTNYADSVKGRFTISRDNAKNTVYLQMNCLKPEDTAVYYSAADPLNYEYFCYWGQGTQVTVSS” here?
Answer: low polyreactivity

Question: For “QVQHVESGGGLVQAGGSLRLSCAASGSTFFKYDMGWYRPAPGTERELVAVITWSGGTTFYADSVKGRFTISRDNANNTVYLQMNSLKPEDTAVSYCAADYYGYRYDYWGQGTQVTVSS”, which “polyreactivity (PSR sort gate)” value is on record?
Answer: low polyreactivity

Question: Which “polyreactivity (PSR sort gate)” value does the source give for “QVQLVESGGGLVQAGGSLRLSCAASGFNSHFYAMGSYRQAPGKEREFVDRISYSGGSTYYADSVKGRFTISRDNAKNTVYLQMNSLKPEDTAVYFCAADKHYFRHFGSWGQGTQVTVSS” here?
Answer: low polyreactivity

Question: For “QVQLVESGGGLVQAGGSLRLSCAASGSTFYTNAMGWYRQAPGKERELVAAISASVGSTYYADSVKGRFTISRDNAKNTVYLQMNSLKPEDTAVYYCAAQYTYLLFASLPDYDYWGQGTQVTVSS”, which “polyreactivity (PSR sort gate)” value is on record?
Answer: low polyreactivity

Question: With “QVQLVESGGGLVQAGGSLRLSCAASGGIFTIYAMGWYRQAPGKETELVASITGGSGSTYYADSVKGRFTISRDNAKNTVYLQMNSLKPEDTAVYYCARETYRRYGAYDYWGQGTQVTVSS” as the sequence, how does the “polyreactivity (PSR sort gate)” value read?
Answer: low polyreactivity
